How the values were obtained:
[1] = system: recombinant HSP90β (385903, Calbiochem/EMD Millipore)
[2] = biological target: heat-shock protein 90β (HSP90β), endogenous, in conditioned medium of SCp2 cells (UniProt P11499)
Sequence of heat-shock protein 90β (HSP90β), endogenous, in conditioned medium of SCp2 cells (P11499 2-724): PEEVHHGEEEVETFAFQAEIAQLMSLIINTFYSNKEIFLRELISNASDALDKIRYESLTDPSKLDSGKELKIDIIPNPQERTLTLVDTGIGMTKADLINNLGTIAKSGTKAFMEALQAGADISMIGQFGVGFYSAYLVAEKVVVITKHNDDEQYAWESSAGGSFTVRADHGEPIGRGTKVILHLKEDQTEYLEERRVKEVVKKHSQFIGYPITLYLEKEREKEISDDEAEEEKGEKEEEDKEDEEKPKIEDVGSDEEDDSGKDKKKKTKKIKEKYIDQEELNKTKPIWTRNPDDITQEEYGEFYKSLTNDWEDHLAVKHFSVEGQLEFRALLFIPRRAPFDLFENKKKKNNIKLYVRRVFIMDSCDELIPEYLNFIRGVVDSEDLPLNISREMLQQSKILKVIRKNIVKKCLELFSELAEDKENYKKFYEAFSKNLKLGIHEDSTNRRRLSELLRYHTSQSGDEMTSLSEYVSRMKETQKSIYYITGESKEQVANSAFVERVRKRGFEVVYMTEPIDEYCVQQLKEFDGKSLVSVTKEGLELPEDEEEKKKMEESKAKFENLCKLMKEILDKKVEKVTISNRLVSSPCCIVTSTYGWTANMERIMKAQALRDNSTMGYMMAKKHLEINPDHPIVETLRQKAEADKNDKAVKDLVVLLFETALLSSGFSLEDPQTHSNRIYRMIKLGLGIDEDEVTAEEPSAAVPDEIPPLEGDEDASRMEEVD

Sequence of Flag-tagged full-length human MMP3 (FL) (chain, as listed by the source): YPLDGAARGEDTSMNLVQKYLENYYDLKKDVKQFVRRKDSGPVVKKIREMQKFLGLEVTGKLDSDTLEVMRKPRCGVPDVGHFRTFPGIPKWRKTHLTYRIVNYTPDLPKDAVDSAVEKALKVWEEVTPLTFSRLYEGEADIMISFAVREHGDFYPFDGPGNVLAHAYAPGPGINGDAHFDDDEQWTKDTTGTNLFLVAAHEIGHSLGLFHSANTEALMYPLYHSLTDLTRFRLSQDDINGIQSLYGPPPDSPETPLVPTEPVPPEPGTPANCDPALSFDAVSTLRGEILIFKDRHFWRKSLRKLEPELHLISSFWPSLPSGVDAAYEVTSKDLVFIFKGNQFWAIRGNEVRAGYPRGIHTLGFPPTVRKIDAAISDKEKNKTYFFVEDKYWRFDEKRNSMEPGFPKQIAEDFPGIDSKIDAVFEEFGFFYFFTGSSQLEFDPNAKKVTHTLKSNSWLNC

Flag-tagged full-length human MMP3 (FL)
invasion and branching (spatial network) of mammary organoids in 3D Col-1 gels with recombinant HSP90β [1]: The recombinant HSP90β added extracellularly enabled the secreted MMP3 to induce the most exuberant branched structures
invasion and branching (spatial network) of mammary organoids in 3D Col-1 gels with a function-blocking antibody against HSP90β [2]: blocking the extracellular HSP90β with inhibitory antibodies added to the medium abolished branching ability in all organoids, including controls

Source: patent US20150079071
